The numbers were not newly measured in patent US12129294B2, “Methods of treatment of diseases in which IL-13 activity is detrimental using anti-IL-13 antibodies” (AbbVie Inc., priority 2016, dated 2024), which cites them from elsewhere.

The test system of this data set is eosinophilic esophagitis (EoE). The note with it: QAX576 study, N = 17, cited from earlier work.

B1: QAX576: anti-IL-13 antibody dectrekumab (QAX-576), comparator study in Table 6 (antibody, chains of the INN, looked up, V domains shown)
VH: EVQLVESGGGVVQPGRSLRLSCAASGFTFSSYGMHWVRQAPGKGLEWVAIIWYDGSNKYYADSVKGRFTISRDNSKNTLYLQMNSLRAEDTAVYYCARLWFGDLDAFDIWGQGTMVTVSS
VL: EIVLTQSPATLSLSPGERAILSCRAGQSVSSYLVWYQQKPGQAPRLLIYDASNRATGIPARFSGSGSGTDFTLTISSLEPEDFAVYYCQQRSSWPPVYTFGQGTKLEIK
As for B1, for the setting “baseline”, the “EEOC Mean BL” value is given as 35.4 and the “EEOC Peak BL” value was 88.2. The “EEOC Mean post” value (post treatment) is 14.6.
